The values below are quoted from earlier work in patent US10669306B2, “Solid supports for use in solid-phase peptide synthesis, kits, and related methods” (UNIVERSITY OF WASHINGTON, priority 2016, dated 2020).

The target of this data set is integrin αvβ3 receptor (Homo sapiens, UniProt P05106+P06756). The settings on record: cyclic form; Prante, O., et al. Bioconjug. Chem. 2007, 18, 254.
Sequence of integrin αvβ3 receptor (P06756 31-889 limits assumed): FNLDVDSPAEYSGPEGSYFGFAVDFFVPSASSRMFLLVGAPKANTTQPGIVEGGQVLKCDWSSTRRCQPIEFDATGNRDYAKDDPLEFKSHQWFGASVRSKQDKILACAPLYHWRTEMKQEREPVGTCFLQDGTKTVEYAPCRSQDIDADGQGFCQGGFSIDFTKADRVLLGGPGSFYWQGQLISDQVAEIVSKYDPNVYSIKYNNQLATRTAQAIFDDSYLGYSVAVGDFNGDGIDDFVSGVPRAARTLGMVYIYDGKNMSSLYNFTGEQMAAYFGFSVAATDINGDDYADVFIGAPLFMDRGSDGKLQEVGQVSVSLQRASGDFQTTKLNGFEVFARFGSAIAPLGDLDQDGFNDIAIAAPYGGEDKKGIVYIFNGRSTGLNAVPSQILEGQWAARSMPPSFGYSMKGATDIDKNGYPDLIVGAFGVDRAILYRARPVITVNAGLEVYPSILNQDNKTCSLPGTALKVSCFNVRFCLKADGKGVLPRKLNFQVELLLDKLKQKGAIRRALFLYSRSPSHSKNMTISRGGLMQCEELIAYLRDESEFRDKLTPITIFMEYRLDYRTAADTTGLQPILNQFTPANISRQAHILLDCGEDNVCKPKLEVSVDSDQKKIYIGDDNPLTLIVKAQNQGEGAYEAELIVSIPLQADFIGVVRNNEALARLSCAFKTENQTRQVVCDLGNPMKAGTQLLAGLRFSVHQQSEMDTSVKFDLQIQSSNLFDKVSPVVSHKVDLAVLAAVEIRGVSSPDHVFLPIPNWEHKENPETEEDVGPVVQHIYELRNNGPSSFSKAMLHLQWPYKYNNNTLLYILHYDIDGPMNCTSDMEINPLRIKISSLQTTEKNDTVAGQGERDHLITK
Sequence of integrin αvβ3 receptor (P06756 891-1048 partner limits assumed): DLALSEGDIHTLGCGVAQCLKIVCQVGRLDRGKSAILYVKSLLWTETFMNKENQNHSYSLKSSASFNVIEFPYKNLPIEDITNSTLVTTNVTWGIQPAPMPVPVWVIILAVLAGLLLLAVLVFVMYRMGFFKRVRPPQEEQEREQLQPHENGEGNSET
Sequence of integrin αvβ3 receptor (P05106 27-788): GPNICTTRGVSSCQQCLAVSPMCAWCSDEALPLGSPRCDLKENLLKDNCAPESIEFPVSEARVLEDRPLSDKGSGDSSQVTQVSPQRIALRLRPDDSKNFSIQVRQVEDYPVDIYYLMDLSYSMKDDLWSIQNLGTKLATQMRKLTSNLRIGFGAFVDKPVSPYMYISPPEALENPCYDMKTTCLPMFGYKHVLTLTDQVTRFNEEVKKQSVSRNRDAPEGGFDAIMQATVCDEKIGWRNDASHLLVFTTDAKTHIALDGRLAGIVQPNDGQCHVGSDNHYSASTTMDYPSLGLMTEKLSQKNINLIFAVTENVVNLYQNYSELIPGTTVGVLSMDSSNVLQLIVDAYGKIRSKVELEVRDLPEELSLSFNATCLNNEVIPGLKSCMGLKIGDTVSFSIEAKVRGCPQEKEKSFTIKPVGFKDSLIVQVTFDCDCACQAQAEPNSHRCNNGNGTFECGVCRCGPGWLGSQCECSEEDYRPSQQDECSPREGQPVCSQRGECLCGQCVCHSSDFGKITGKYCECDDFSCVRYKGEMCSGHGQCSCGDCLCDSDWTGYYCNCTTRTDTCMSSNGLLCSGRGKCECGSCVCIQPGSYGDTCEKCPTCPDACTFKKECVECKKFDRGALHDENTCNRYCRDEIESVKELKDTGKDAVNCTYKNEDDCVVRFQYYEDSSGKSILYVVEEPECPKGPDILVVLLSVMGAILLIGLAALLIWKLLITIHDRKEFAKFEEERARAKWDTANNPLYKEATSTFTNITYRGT

Take “CRGD(D-F): Cyclic CRGD(D)-F, a commercially available integrin binding peptide (ANASPEC)”: the “binding affinity for integrin αvβ3 receptor” value is on record as “nanomolar affinity”.
